Patent publication US20120034161A1, “PRETARGETING KIT, METHOD AND AGENTS USED THEREIN” (KONINKLIJKE PHILIPS ELECTRONICS N.V., priority 2009, published 2012)

Tested on: human colon cancer cell line LS174T
Conditions: mouse, in vivo

## Rtx-TCO: TCO-modified rituximab for control in vivo experiments; lacks specificity for TAG72
  125I-mAb in tumor: 6.3±1.2 % ID/g
